Measurements published in US9770493B2 (DSM IP ASSETS B.V., priority 2008, dated 2017).
Read-outs that look alike come from different tables or passages of the source. Values belong to the compound of their own block, whether it stands above or below them. Peptide text beside a SMILES is read from it.

Key:
[1] = system: healthy volunteers; assay: Profile of Mood States (POMS) after drinks with different tryptophan sources (Example 6); assay type: in vivo, human; conditions: for mood changes (POMS total mood scores): after the intake, over the session
Description: Subjects were instructed to fast overnight; only water or tea without sugar was permitted. During five experimental morning sessions, subjects visited the laboratory to monitor plasma Trp/LNAA concentrations and mood following the intake of a drink containing different Trp or LNAA concentrations. The order of presentation of the various drinks was counterbalanced and the four experimental days were separated by a one-week period. On each experimental morning, a 312 ml drink was provided containing different tryptophan (Trp) or LNAA concentrations (Table 2). All drinks contained 0.10 g sweetener (acesulfame) and were filled up with plain water in order to reach 312 mL. A research assistant blind to the dietary conditions conducted the administration of the different drinks.
The POMS comprises five different subscales for mood; ranging from Anger, Depression, Fatigue and Tension that refer to a negative mood state, to Vigor concerning a positive mood.

[2] = set-up: species or system human; conditions: in vivo
From the text: The aim of the present study was to investigate in healthy volunteers plasma Trp/LNAA profiles and mood after the consumption of different tryptophan containing preparations.
Eighteen healthy students (9 males and 9 females: age between 18-30 years) participated in the study. Exclusion criteria for participation were chronic and current illness, history of psychiatric or medical illness, use of medication or drugs, alcohol consumption (>2 units/day), metabolic-, hormonal- or intestinal diseases and irregular diets or deviant eating habits (assessed by health and life-style questionnaires). Subjects participating in the experiment were in the normal range for the Body-Mass Index (BMI in kg/m^2 between 20-25) and female subjects are matched for contraception. Women participated during their mid-late follicular phase (day 4-10), while women using contraception participated when they actually used the contraception pill. […] All subjects participating in the experiment signed an Informed Consent Form. This study was conducted according to the EC principles of Good Clinical Practice (GCP) adopted by the 52nd WMA General Assembly, Edinburgh, Scotland, October 2000.
Subjects were instructed to fast overnight; only water or tea without sugar was permitted. During […] experimental morning sessions, subjects visited the laboratory to monitor plasma Trp/LNAA concentrations and mood following the intake of a drink containing different Trp or LNAA concentrations. The order of presentation of the various drinks was counterbalanced and the four experimental days were separated by a one-week period. On each experimental morning, a 312 ml drink was provided containing different tryptophan (Trp) or LNAA concentrations (Table 2). All drinks contained 0.10 g sweetener (acesulfame) and were filled up with plain water in order to reach 312 mL. A research assistant blind to the dietary conditions conducted the administration of the different drinks.
Blood samples were collected in duplicate before and 15, 30, 60, 90, 120, 180 and 210 minutes after ingestion in 5 ml vacutainer tubes containing sodium heparine and were then centrifuged at 5000 rpm for 5 min at 4° C. The resulting supernatants were mixed with sulfasalicyl acid (4 mg/100 microliter) and directly stored at −80° C. until analysis. Plasma amino acid analysis was conducted with HPLC, making use of a 2-3 μm Bischof Spherisorb ODS II column as described by van Eijk et al (J. Chromatogr. 1993: 620: 143-148). The plasma Trp/LNAA ratios were calculated by dividing the plasma molar tryptophan concentration by the sum of the plasma molar concentrations of the large neutral amino acids valine, isoleucine, leucine, tyrosine and phenylalanine. Statistical analysis took place by means of repeated measures multivariate and univariate analyses of variance (MANOVA and ANOVA) using the General Linear Model (GLM: SPSS 12.0 for Windows). All statistics were evaluated at a significance level of P=0.05.

[3] = earlier studies (Markus et al., 2000; Booij et al., 2006); cited from earlier work
[4] = biological target: T1, pepsin (Sus scrofa, UniProt P00791); assay: Test for protease resistancy (pepsin pH 4, SDS-PAGE); assay type: in vitro ADME; conditions: pepsin 1% w/w, 2 hours at 37 degrees C
T1 construct: purchased Sigma
T1 sequence (P00791 60-385): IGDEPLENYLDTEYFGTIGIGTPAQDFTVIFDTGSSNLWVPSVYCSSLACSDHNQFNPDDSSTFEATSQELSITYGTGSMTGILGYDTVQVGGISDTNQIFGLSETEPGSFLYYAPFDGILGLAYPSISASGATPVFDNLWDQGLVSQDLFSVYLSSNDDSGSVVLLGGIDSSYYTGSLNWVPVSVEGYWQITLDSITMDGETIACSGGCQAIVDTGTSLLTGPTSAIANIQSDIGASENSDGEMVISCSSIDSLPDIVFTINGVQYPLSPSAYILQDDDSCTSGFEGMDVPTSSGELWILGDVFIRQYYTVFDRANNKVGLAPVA
Description: To test its digestibility in the human stomach, a 5% (w/w) solution of the intact protein was incubated with pepsin (Sigma; 1% w/w pepsin to intact protein) for 2 hours at 37 degrees C. in a Mc Ilvane buffer (0.2 M citric acid plus Na2HPO4) pH 4.0. The degree of protease resistancy is defined as the percentage of the protein that is not affected by the pepsin incubation. “Not affected” meaning that the molecular weight of the protein has not changed as a result of the pepsin incubation; “percentage of the protein” meaning the area under the curve after digestion times 100, divided by the area under the curve prior to digestion; “area under the curve” is the area of the protein having the initial molecular weight as provided by the quantitative analysis method used (see further).
Molecular weights are compared according to SDS-PAGE followed by staining according to the protocol specified hereunder. After staining of the gel, a digital image is prepared using the OptiGo imaging system (Isogen Life Science; www.isogen-life-science.com) followed by the quantitative analysis of selected protein bands using Totallab TL 100, version 2006 software (Nonlinear Dynamics Ltd; www.nonlinear.com) running under Windows XP.
All materials used for SDS-PAGE and staining were purchased from Invitrogen (Carlsbad, Calif., US). […] Staining was performed using Simply Blue Safe Stain (Collodial Coomassie G250).
Together with beta-lactoglobulin, alpha-lactalbumin forms the major protein constituent of whey. Because of its high Trp/LNAA ratio, isolated alpha-lactalbumin fractions as well as alpha-lactalbumin hydrolysates have gained popularity for enhancing plasma tryptophan levels. […] According to the present application, a pepsin-resistant molecule with a high Trp/LNAA ratio is essential to maintain high plasma Trp/LNAA ratios longer term. […] This was illustrated in the following experiment. […] After incubation both solutions were heated for 5 minutes at 80 degrees C. to terminate the reaction and small samples were subjected to SDS-PAGE (see Materials & Methods) to test the integrity of the various pepsin treated molecules.

[5] = system: trypsin/chymotrypsin mixture; assay: Lysozyme hydrolysis by a trypsin/chymotrypsin mixture (in vitro digestibility, DH); assay type: in vitro ADME, Porcine; conditions: pH start 7.2, 2 hours at 37 degrees C
Description: (§1) Both incubations were carried out under pH conditions that are prevalent in the stomach (pepsin) and duodenum (trypsin/chymotrypsin). […] To prevent major pH changes as the result of the ongoing protein hydrolysis, incubation was carried out in a Mc Ilvane buffer (0.2 M citric acid plus Na2HPO4).

[6] = biological target: T1, pepsin; assay: Lysozyme hydrolysis by pepsin (in vitro digestibility, DH); assay type: in vitro ADME; conditions: pH start 2.8, 2 hours at 37 degrees C
Description: as §1

[7] = Kinetics of plasma Trp/LNAA ratio after hydrolysed, intact or mixed lysozyme (Example 11); assay type: in vivo, human; conditions: inferred from area-under-the-curve
From the text: Exclusion criteria were: chronic and current illness, at the discretion of the investigator; history of psychiatric disorders; use of selective serotonin reuptake inhibitors (SSRI); use of supplements targeting the central nervous system, such as supplements containing tryptophan, ephedrine, or St John's wort; egg allergy; drug abuse; participation in any other study involving investigational or marketed products concomitantly; intolerance to artificial sweeteners; any (history of) gastrointestinal disease that interferes with gastrointestinal function, at the discretion of the investigator; use of medication targeting the gastro-intestinal tract, such as antacids. Finally, for women, pregnancy or the use of a medically not accepted contraceptive method is an exclusion criterion as well. All subjects participating in the experiment signed an Informed Consent Form.
The study was performed according to a randomized, double-blind, crossover design with a washout period between the intake of the different treatments of three days at least.
The drinks were presented as sterile products in bottles with straws. […] A research assistant blind to the dietary conditions conducted the administration of the different drinks.
The subjects visited the site between 8 and 9 am, having fasted for at least 8 hours. A flexible cannula for blood drawings was inserted in their non-dominant forearm. […]

[8] = biological target: T2, microbial subtilisin (EC 3.4.21.62) (Bacillus licheniformis, UniProt P00780); assay: Susceptibility of lysozyme to subtilisin (Protex 6L) hydrolysis at elevated pH, DH; assay type: physicochemical
T2 construct: purchased Genencor (Leiden, The Netherlands) Protex 6L
T2 sequence (P00780 106-379): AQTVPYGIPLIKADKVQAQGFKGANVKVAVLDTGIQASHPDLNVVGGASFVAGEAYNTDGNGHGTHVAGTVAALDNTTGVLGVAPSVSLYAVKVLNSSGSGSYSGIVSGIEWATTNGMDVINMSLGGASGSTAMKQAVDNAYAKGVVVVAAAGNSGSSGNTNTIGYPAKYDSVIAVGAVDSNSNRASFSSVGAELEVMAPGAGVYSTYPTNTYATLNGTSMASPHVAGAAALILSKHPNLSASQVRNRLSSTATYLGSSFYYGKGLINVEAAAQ
Description: The Degree of Hydrolysis (DH) as obtained during incubation with the various proteolytic mixtures was monitored using a rapid OPA test (Nielsen, P. M.; Petersen, D.; Dambmann, C. Improved method for determining food protein degree of hydrolysis. Journal of Food Science 2001, 66, 642-646).
The incubation was carried out for 3 hours at 60 degrees C. with a constant adjustment of the pH using 1M NaOH. The incubations yielded slightly turbid solutions without any significant precipitates. After a heating step to inactivate the subtilisin activity, the DH values of the various incubations were measured according to the protocol described in the Materials & Methods section. […] The pH 7.0 incubation yielded a DH of 6.3, the pH 8.0 incubation a DH of 11.2 and the pH 9.0 incubation a DH of 16.4.

Compound: ALAC: intact alpha-lactalbumin obtained as Biopure (>90% alpha-lactalbumin) from Davisco Foods; in Example 10 part of whey protein (Bipro)
mood changes (POMS total mood scores) [1]: no mood changes
increase in plasma Trp/LNAA ratio [2]: 67%
increases in plasma Trp/LNAA as previously found [3]: 50-70%
quantity of intact protein after incubation with pepsin (SDS-PAGE) [4]: almost completely degraded
protease resistant according to the test (more than 50% of protein with original molecular weight present) ([4]; listed as alpha-lactoglobulin): not “protease resistant”
protease resistant according to the test (more than 50% of protein with original molecular weight present) ([4]; listed as intact alpha-lactalbumine): not protease-resistant

Compound: beta-lactoglobulin: whey protein constituent of Bipro (Davisco), very low Trp/LNAA ratio (0.04)
protease resistant according to the test (more than 50% of protein with original molecular weight present) [4]: protease resistant
quantity of intact protein after incubation with pepsin (SDS-PAGE) [4]: remains largely intact

Compound: lysozyme: hen egg lysozyme (EC 3.2.1.17), intact protein, obtained as Delvozyme L or Delvozyme G from DSM Food Specialties
DH end (%) [5]: 1.3%
DH end (%) [6]: 2.4%
digestion and uptake into the blood [7]: completely digested and taken up into the blood
protease resistant according to the test (more than 50% of protein with original molecular weight present) [4]: protease resistant
quantity of intact protein after incubation with pepsin (SDS-PAGE) [4]: not significantly diminished
DH ([8]; pH 7.0, 3 hours at 60 degrees C): 6.3
DH ([8]; pH 8.0, 3 hours at 60 degrees C): 11.2
DH ([8]; pH 9.0, 3 hours at 60 degrees C): 16.4

Compound: N[C@@H](Cc1c[nH]c2ccccc12)C(=O)O [TRP, L-tryptophan]
mood (POMS total mood scores) ([1]; 60 min after the intake): Comparable improvements of mood
plasma Trp/LNAA ([2]; both, human, 0 min): 0.11
plasma Trp/LNAA ([2]; both, human, 30 min): 0.12
plasma Trp/LNAA ([2]; both, human, 60 min): 0.29
plasma Trp/LNAA ([2]; both, human, 90 min): 0.31
increase in plasma Trp/LNAA ratio ([2]; both, human, 120 min): 191%
plasma Trp/LNAA ([2]; both, human, 120 min): 0.32
plasma Trp/LNAA ([2]; both, human, 180 min): 0.24
plasma Trp/LNAA ([2]; both, human, 210 min): 0.20

increase in plasma Trp/LNAA ratio [2]: 263%
Compound: N[C@@H](CO)C(=O)N[C@@H](Cc1c[nH]c2ccccc12)C(=O)O [SYN, Ser-Trp] (H-Ser-Trp-OH)
mood changes (POMS total mood scores) [1]: not significant
